The results in this text go back to paper PMC10983988.

For the series, the target named is T1, m-TREX1 (Three Prime Repair Exonuclease 1, catalytic domain) (mouse, UniProt Q91XB0 1-242).
T1 sequence: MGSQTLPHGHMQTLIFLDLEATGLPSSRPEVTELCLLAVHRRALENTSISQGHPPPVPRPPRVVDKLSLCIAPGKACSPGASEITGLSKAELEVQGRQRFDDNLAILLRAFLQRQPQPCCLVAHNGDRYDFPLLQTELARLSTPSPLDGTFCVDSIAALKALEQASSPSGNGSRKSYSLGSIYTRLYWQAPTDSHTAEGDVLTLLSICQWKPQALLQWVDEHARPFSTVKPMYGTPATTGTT
As to the kind of experiment: fluorescence polarization anisotropy.

B1: U3 3'-processed (dsDNA)
DNA 1: AGTGAATTAGCCCTTCCA
DNA 2: ACTGGAAGGGCTAATTCACT
For the molecule B1, the affinity, expressed as Kd, was 216 ± 4.6 nM.

B2: U3 unprocessed (dsDNA)
DNA 1: AGTGAATTAGCCCTTCCAGT
DNA 2: ACTGGAAGGGCTAATTCACT
Turning to B2, the dissociation constant (Kd) worked out at 118 ± 8.4 nM.
